Reference: patent US7601687

Legend:
[1] = molecular target: B type Insulin Receptor of islet cells (endogenous) (rat or mouse (not stated for the experiment)); test: cell-based or functional assay
[2] = molecular target: B type Insulin Receptor of HIT-T15 cells (endogenous) (hamster); test: cell-based or functional assay

## insulin (ligand)
[1]
  βGK mRNA levels in pancreatic islets (FIG. 4A): 50 µU per ml
[2]
  amount of exogenous insulin necessary to trigger βGK promoter activity (βGK promoter-driven GFP expression, HIT cells, FIG. 4B): 20 µU per ml
